Two substances from paper PMC8208711 can be followed below.

The target of the test is human wild-type full-length CC chemokine receptor 5 (CCR5) (human) (UniProt P51681).

[6P4]CCL5 D5A (ligand) returned a Ca2+ flux in HEK-CCR5 cells, decrease of Emax against [6P4]CCL5 of 30%. Under [6P4]CCL5 D5K (ligand) stands 60%.
